Test: label from the status in PepcDB records

| Sequence | protein production |
| --- | --- |
| MDKHHSKKAILKLTLITTSILLMHSNQVNAEEQELKNQEQSPVIANVAQQPSPSVTTNTVEKTSVTAASASNTAKEMGDTSVKNDKTEDELLEELSKNLDTSNLGADLEEEYPSKPETTNNKESNVVTNASTAIAQKVPSAYEEVKPESKSSLAVLDTSKITKLQAITQRGKGNVVAIIDTGFDINHDIFRLDSPKDDKHSFKTKTEFEELKAKHNITYGKWVNDKIVFAHNYANNTETVADIAAAMKDGYGSEAKNISHGTHVAGIFVGNSKRPAINGLLLEGAAPNAQVLLMRIPDKIDSDKFGEAYAKAITDAVNLGAKTINMSIGKTADSLIALNDKVKLALKLASEKGVAVVVAAGNEGAFGMDYSKPLSTNPDYGTVNSPAISEDTLSVASYESLKTISEVVETTIEGKLVKLPIVTSKPFDKGKAYDVVYANYGAKKDFEGKDFKGKIALIERGGGLDFMTKITHATNAGVVGIVIFNDQEKRGNFLIPYRELPVGIISKVDGERIKNTSSQLTFNQSFEVVDSQGGNRMLEQSSWGVTAEGAIKPDVTASGFEIYSSTYNNQYQTMSGTSMASPHVAGLMTMLQSHLAEKYKGMNLDSKKLLELSKNILMSSATALYSEEDKAFYSPRQQGAGVVDAEKAIQAQYYITGNDGKAKINLKRMGDKFDITVTIHKLVEGVKELYYQANVATEQVNKGKFALKPQALLDTNWQKVILRDKETQVRFTIDASQFSQKLKEQMANGYFLEGFVRFKEAKDSNQELMSIPFVGFNGDFANLQALETPIYKTLSKGSFYYKPNDTTHKDQLEYNESAPFESNNYTALLTQSASWGYVDYVKNGGELELAPESPKRIILGTFENKVEDKTIHLLERDAANNPYFAISPNKDGNRDEITPQATFLRNVKDISAQVLDQNGNVIWQSKVLPSYRKNFHNNPKQSDGHYRMDALQWSGLDKDGKVVADGFYTYRLRYTPVAEGANSQESDFKVQVSTKSPNLPSRAQFDETNRTLSLAMPKESSYVPTYRLQLVLSHVVKDEEYGDETSYHYFHIDQEGKVTLPKTVKIGESEVAVDPKALTLVVEDKAGNFATVKLSDLLNKAVVSEKENAIVISNSFKYFDNLKKEPMFISKKEKVVNKNLEEIILVKPQTTVTTQSLSKEITKSGNEKVLTSTNNNSSRVAKIISPKHNGDSVNHTLPSTSDRATNGLFVGTLALLSSLLLYLKPKKTKNNSK | failed |
| MDKIRSLRFFIATLEGGSFAAAAKAYGTDPSTVSKAIHRLESDLGIQLFQRSTRQIRLTEAVRRYANTARFVLDELAACEDSLKSHNDALSGLLKINVPVSYGRLYIRPLLKEFCRRYPSITIDIHYDDAYVDIIEQGIDVSIRSGVVQDSQLIVRQLSPIDFIICGSQDYLTRHGVPSGPDAFNDHSWVRFRFKQTGKLLPIRMPEPDGTSEYNPERNFIVNDGESMAELCAEGLGLTQIPHFIARDWLKVGRLVPIFPSMRQAGNGVYLLYANREYVPARVRVFIDFITQAIQDMDETPFHTWAETLPIYQPNQGD | failed |
| MDKKPSILIFIVAYNAESTIENVLMRIPADLLDDFDAEVLVIDDQSSDDTVLRCAETIQSGKIRFKTNVLVNPENQGYGGNQKVGYQYAIEHDFDCVALLHGDGQYAPEYLRDLITPVTKGEAEAVFGSRMMTPFGALKGGMPAYKFVGNKILTLFQNIMLKTSLSEFHSGYRAYSVKALKQIPFHLNTPDFHFDTEIIIQLILWGFRIAERPIPTYYGDEICYVNGLKYALDVVITTTKARMQRLGLFHECKYEVIHPHNSNGYPEAKLSIKSPSGNRILEHHHHHH | failed |
| MDKLDAMQVYVAVVDAHSFARAAEVLGQPRSTVSRVVKELEAWLGAQLLQRTTRKLSVTAEGRRYYEECKRLLAEMAAMEASFPGRSAQPAGRFKVGMPQSLARHCILPRIGEFLQQYPDLELILCSSDNVEDIIQEGFDCVIRTGRIEDSTTLVARPLARYRWMVLASPAWLAAHGRPQSIDELHQHRAVGYLNHRTGRTIDWLFSLDEGDCAIRMRETLVVDDTDAYIQAGIQGLGLIRVASYLAQPYLQSGALVACLEQAASDLPLSLVYPQNRYLPPAVRAFYDWSRRVLQPPHSEA | failed |
| MDKNETRATIIRIGTDLISRQGFNATGIDAVLKEAGVPKGSFYYYFRSKEEFGLAVIDHFAERYDQRLDTFLNDEEVTPLNRIRNYLESALARLEQNQCSKGCLIGNLGQELADQHERFRGRLDEIFRSWKDRFAACLREAQRGGELAPELDAGVAAGFILSGLEGAILRTKVMKSPQPLRDFIEILFASVLRRQA | not failed |
| MDKNIKNKAEELIKDLIQKIDNNPYDAQAYYNLGVALNDAHSAEQAEELFKKALNIFANSKEKSSLMHYGLGNVYYTNSIYDKAIVEFKKVQSEKLKQDSMLMMAQAYYAQENYPQAMMYALTVSENTKHNVDAISLLASCFMATGDLTNARKYYLKALEYDKDNVEVLFQLGVIELSLSGEAGKYFDRVKNLDNEYYKKMQQRLADVQRFLMTQKKGKSDE | failed |
| MDKNNLEDLTGKKILRNGFGGLRLEYGTIFLDVGLFTYIVLILSIFFFLVERWFLGALTFVLHVPLLLLGIWCGER | failed |
| MDKPVVRDAALLIFRAVLGVIFVAHGWEKLFISGVTKTTGQFSAWGVPQPKLSVWITSISELLGGAFLVVGLLTTFVAGALALLIAAAIYFVHLSSGFFTVENGIEFPLLIIVSLLVIVVFGSGRASVDGVLTRG | failed |
| MDKQKEQLSIEVARLYYQSDLGQQEIATRLGVSRPTVSRLLQNAKLKGYVKIEVQDPFSNLTELANALKEKYQLKNVTVAFSQTNDYSEISKQISQSAAEYLEEIIHDDDILGVSWGTTMYKIAQKLSPQKAEIKVVQLKGGVSHSDVNTYAAETLALFGAAYDTAPVSLPLPVVLDNPLAKQMVEADRHIKNIIELGKKANIAIFTVGTVREEALLFRLGYFSDEEKIRLKEKAVGDICSRFFTINGEIADEKMNERTIGIDLQDLKQKETAILVAGGERKIKAIHGALRGGYANHFITDQYTAKQLLEQNFSN | failed |
| MDKQQRGIQVIRIWLGVTMLIHGVMKVTSLEDTLAFFASIGLPSLFVYGVAAIELIGGLFMIIGFLIPLVSVGFIAVLVGAIFSFGLASGFSGYEYELFLAITSLAILVSYADKKYLTLKLYF | failed |
| MDKYPFLREAGSSFKDRDVTKMSDLIATWDGQDIKGPALIGVPLSKSSISHSGASFAPGTIRQALKHSSAYSAELGEHVVSELLYDLGDIDIHVTDIVKSHHHIFQTMHALLSDHPDWVPLILGGDNSISYSTIKAIAQTKGTTAVIQFDAHHDVRNTEDGGPTNGTPFRRLLDEEIIEGQHLIQLGIREFSNSQAYEAYAKKHNVNIHTMDMIREKGLIPTIKEILPVVQDKTDFIFISVDMDVLDQSHAPGCPAIGPGGLYTDELLEAVKYIAQQPNVAGIEIVEVDPTLDFRDMTSRAAAHVLLHALKGMKLSPFK | not failed |
| MDLDVYVSAHRAEWDRLDDLLRRRRRLTGAEADELVALYQRTATHLSVIQSSAPDPQLTGRLSQLVARARSAVTGTRRASWRDVTRFLAYGFPAAVYRARHWWVPTALLSTVTAVLLGWWIGTHPEVQSSIAAPSELRALTRPGGEYETYYSSHPAASFAAQVWTNNAQAAAMCLVLGIFLGLPVLWILFQNMLNLGVGLGLMSSAGRLDTFLGLVLPHGLLELTAVFVAAGTGLRLGWTLIDPGPRSRRTALAEEGRAALGMAVGLALVLFVSGAIEGFVTPSGLPTWARIGIGIAAELAFLTYVYVLGGRATRAGDTGDIEAAERSATVPTAA | failed |
| MDLHGCAKNQVDAELIIGIMENLSWKNTSDPDEADLIIVNSCGFINSAKEESINAVLQAKAAHPKAKVLLAGCLAERYADILKNDLPEADGIFGNGNLSLLPQLIDSMFPKKTSDEKFIEKTLVPPQIGICGGERPKILNFPRSTYIKITEGCDNFCSFCAIPIIRGRLRSRPIKDICDEIKTFLKKSFYEFNLIGQDLAAYQTGKDDLSEDELHRENCSGLALLLKSISKIKGNFKIRLLYIHPDHFPLDILPIMTADKRFLPYFDIPFQSGAQKIIRAMNRNGAAEVYLDIIKNIREAFEKTNSPYGEPQIRTTFLVGFPGETDEDFNETIKFLKELRPLWSGGFTYSREEDTPSYSFKGKVPKKTAEARLAEIQNAQTSITEKKLDSFIGKEIEVLVEELIQAEDKTFLALGRAWFQAPEVDGAVVLNFNLNKKDIDGNPIAPGSIVKARIAARNGFDLEAVAV | failed |
| MDLHSLCVDSHALRRDGMRFLHTADWQLGMTRHFLAGDAQPRYSAARRDAVAGLKALAADVGAEFVVVAGDVFEHNQLAPQIVGQSLEAMRVIGLPVYLLPGNHDPLDASSVYTSTLFRAERPDNVVVLDRAGVHEVRPGVQIVAAPWRSKAPTTDPVAEVLAGLPTDAAIRLLVAHGGVDALDPDHDKPSLIRLAALDDALTRQAIHYVALGDKHSLTQVGSSGRVWYSGAPEVTNFDDVEPDPGHVLVVDIDESDPRHPVTVDARRIGRWRFVTLHHQVDTSRDIADLDLNLDLMTDKDRTVVRLALTGSLTVTDRAALDTCLDKYARLFAWLGLWERHTDLAVIPVDAEFTDLGIGGFAAAAVDELVATARGGDDESAVDAQAALALLLRLADRGAALEHHHHHH | failed |
| MDLICMYVFKGEESFGESIDVYGDYLIVKVGTEFLAVPKKSIKSVEDGRIVIGEFDEEEARELGRKWLEEKSKPVTLEELKSYGFGEEGE | not failed |
| MDLIEPAVRVFLGVFFLMIGLQFAARTLGLYSRLGFSHINYGKTGTATWWHRHTFNLFRAAILLMCLARIWVDLDAWLGVFPLLYHWPVLLAGAVLLLVSYTSVNYLQAYMHEDWRSGIDDHHGSGHLLTDGPFGRSRNPLFLAVMTGQLGFFLALPSVFSLVCLVTGVLVIMRQAREEEKALAKRFGEQYEAYCKRVPRWF | failed |
| MDLKESQEFSGLIAGKPRISYQNDYGGHRTNLHLLDSRLWIILSGQAAILGFCGNTVLAEDESMKSKSGDNMDESGNTGLEKIEDGSVVSNIHTSKWRVFTDSGRDYFFQGKLEPAERLFGSAIQEAKEGFGEKDPHVASACNNLAELYRVKKEFDKAEPLYLEAVSILEEFYGPDDVRVGATLHNLGQLYLVQRKLEEARACYEIRRCVFAVISYVKNYDELES | failed |
| MDLSTAFPTLVTDLPAAFSMSVVGGVGLAMIVLDAFRNDHPAIPWLGVAALGVSAVWEITHLGAPPSTVFFETLRTGGFVAFINLIILLTGLATILLSVPYLNQLRYDYGEVYALIMFCTVGMIMLGSANNMVSIFLGLETMSVCLYVLTGFIREDEGAVESALKYFLLGAFSTGFFLYGIALMYGATGTMALPAMAAAELGTLSTRLLFWGGFALFLVGFFFKVSAAPFHMWTPDVYQGAPTPLTGYMSTATKAAAFAALILVLVHAVPGGEWQLSVAAVAVLTMVIGNVMALAQTNVKRLLAYSSIAHAGYLLVGLSAGTSAGYAGALFYLLVYAVMNIGAFGVMSMLEWDGKEGREQTLSSLAGIANDRPVLGSTMGVFMLSLIGFPPLGGFIGKYLVFAPAVDAGLTWLVVIGVLMSALSAYYYLRVVYVFWMQSADEVAATDPVRAAAFPRATVAATGTLVVCAVALVVLGVFFGGVLETTLGFFETTAMATAP | failed |
| MDLTISNELTGEIYGPIEVSEDMALTDLIALLQADCGFDKTKHDLYYNMDILDSNRTQSLKELGLKTDDLLLIRGKISNSIQTDAATLSDEAFIEQFRQELLNNQMLRSQLILQIPGLNDLVNDPLLFRERLGPLILQRRYGGYNTAMNPFGIPQDEYTRLMANPDDPDNKKRIAELLDQQAIDEQLRNAIEYTPEMFTQVPMLYINIEINNYPVKAFVDTGAQTTIMSTRLAKKTGLSRMIDKRFIGEARGVGTGKIIGRIHQAQVKIETQYIPCSFTVLDTDIDVLIGLDMLKRHLACVDLKENVLRIAEVETSFLSEAEIPKSFQEGLPAPTSVTTSSDKPLTPTKTSSTLPPQPGAVPALAPRTGMGPTPTGRSTAGATTATGRTFPEQTIKQLMDLGFPRDAVVKALKQTNGNAEFAASLLFQ | failed |
| MDLTKQFPRSPVDRLGGMDHLKRVIDKARAHVAGTLGEYTYNCPLDQAFFSFFGLDHEKFAEAVKSRPQDQDMLAWVHSQSPRSKNPKEVESFNREYESRSPDSPEKWDYFRSVRDSLAPGRTDITTWVKLLDLEEKRPV | not failed |

From a protein production outcome set (Wang et al. 2014)
